Reference: publication PMC5844992

Tests used:
[1] = target: HIV-1 NL4-3 wild-type protease (PR) tagged with CFP or YFP (HIV-1 (NL4-3)); test: FRET or BRET; FRET-based HIV-1 expression assay; COS-7 cells cotransfected with CFP- and YFP-tagged protease clones, 72 h, no DRV; acceptor photobleaching, CFP^A/B ratio > 1 means dimerization; confocal microscope, room temperature
[2] = target: HIV-1 NL4-3 wild-type protease (PR) tagged with CFP or YFP (HIV-1 (NL4-3)); test: FRET or BRET; as a1, cells cultured with 10 nM DRV added with the transfection

“HIV-1 NL4-3 wild-type protease (PR) tagged with CFP or YFP (enzyme)” gave a CFP^A/B ratio [1] of 1.07 and a CFP^A/B ratio [2] of 1.04.
